Target: Hoc- Soc- phage T4 particles (capsid) (phage T4) (UniProt P13332)
Assay: co-sedimentation

With Soc-PA (93 kDa) the BC50 (half-maximal binding concentration) was 1140 nM.

Source: paper PMC6191538
